± gives the uncertainty stated by the source.
Assay: protein stability index of a GFP-peptide fusion (yeast GPS) (PSI 1-4); higher = more stable; sorted into four equal gates, so the index is relative within each strain
How it was run: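 Tiled 17-residue yeast protein peptides were fused downstream of GFP in a plasmid that also expresses Cherry, and the pooled library was carried in yeast. Mid-log cultures in leucine-free medium were sorted into four equal gates by GFP/Cherry fluorescence ratio, and plasmids from each gate were PCR-amplified and Illumina-sequenced, with reads assigned to strains by barcodes. The protein stability index for each peptide was each gate's read frequency times its gate number, summed.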

Sequence	protein stability index (doa10∆)	protein stability index (pdr5∆)	protein stability index (san1∆)	protein stability index (ubr1∆)
QRVRNMRELGLIQSTEF [YOR098C/NUP1]	2.78 ± 0.12	2.03 ± 0.1	2.84 ± 0.26	2.22 ± 0.12
MTTFYKCVNCGHRWKEN [RPC11]	2.82 ± 0.16	2.66 ± 0.071	2.22 ± 0.15	2.74 ± 0.071
LNIDWSTTGDNGELDLS [MED2]	2.2 ± 0.057	2.48 ± 0.058	2.13 ± 0.079	2.28 ± 0.044
EALLRSLLDAEEERRKK [SNF2]	2.87 ± 0.15	2.62 ± 0.094	2.27 ± 0.17	–
TDLENSSLFQEKLLETN [ECM29]	2.52 ± 0.096	2.46 ± 0.079	2.49 ± 0.056	2.68 ± 0.057
CLFENDLQRLKPLGLDR [ITC1]	2.92 ± 0.074	3.19 ± 0.11	3.15 ± 0.065	3.09 ± 0.042
DIWSISKKRQAEKLVPL [YML031W/NDC1]	2.64 ± 0.089	2.78 ± 0.076	2.35 ± 0.073	2.55 ± 0.062
SFFHQSNMQKSLLPYYH [RPN3]	1.66 ± 0.037	1.67 ± 0.041	1.63 ± 0.07	1.9 ± 0.03
LKRFPKMSVTCNAQPIT [BRR2]	2.33 ± 0.066	2.23 ± 0.06	2.02 ± 0.11	1.9 ± 0.037
KEKEAAESPEEADVEMS [PUP2]	3.41 ± 0.11	3.51 ± 0.11	2.99 ± 0.076	3.28 ± 0.071
NLQQDKTNFQDVILDYQ [REC8]	3.07 ± 0.069	3.19 ± 0.05	3.4 ± 0.071	3.12 ± 0.041
EYALPKTYNKLHYCVSC [RPS26A]	1.24 ± 0.069	1.42 ± 0.055	1.34 ± 0.12	1.41 ± 0.04
LTLMEKAAFEDLKSKGL [FAS1]	3.03 ± 0.078	3.29 ± 0.088	3.2 ± 0.054	3.26 ± 0.052
NNTHVGRQFCNRLSRIH [YLR018C/POM34]	2.34 ± 0.12	2.69 ± 0.17	2.3 ± 0.23	1.95 ± 0.089
WSFYNGNVLINDTLPDE [SNU114]	–	2.23 ± 0.16	–	1.7 ± 0.16
PAGHAGNPTNISSPIVA [YDL088C/ASM4]	2.52 ± 0.068	2.71 ± 0.065	2.67 ± 0.064	3.02 ± 0.046
EGEAKQKRNAHGYFLQD [ITC1]	3.18 ± 0.065	3.4 ± 0.072	3.35 ± 0.035	3.32 ± 0.043
MATIASEYSSEASNTPI [PRE7]	2.53 ± 0.094	2.76 ± 0.14	2.83 ± 0.08	2.93 ± 0.13
QTVRLIKDLQRAINKVL [SIR2]	2.13 ± 0.057	2.03 ± 0.061	1.22 ± 0.11	2 ± 0.039
MDKKILLNINGSRKVAG [SMX2]	1.57 ± 0.06	1.84 ± 0.066	1.81 ± 0.09	2.11 ± 0.047
NERRKDLAERASELDES [SMC3]	2.13 ± 0.058	2.79 ± 0.06	1.98 ± 0.11	2.97 ± 0.054
NVHGSLEPFLLMLEDTD [BRR2]	2.47 ± 0.077	2.63 ± 0.088	2.87 ± 0.11	2.94 ± 0.059
NKTAHLSIPGKSTPEGT [SNU114]	2.94 ± 0.065	3.04 ± 0.061	2.79 ± 0.048	3.01 ± 0.038
PTRMVRVAKGSGTSVFE [SRP54]	2.94 ± 0.29	–	–	–
NVAHRIKEDIKKQPSIL [SNF2]	2.9 ± 0.15	3.21 ± 0.14	3.05 ± 0.097	3.19 ± 0.12
TGSLMGGNSTQNTSNMN [YGR119C/NUP57]	3.19 ± 0.076	3.24 ± 0.064	3.07 ± 0.052	3.18 ± 0.048
SLRETNTTDPLGHTKAA [SIR2]	2.77 ± 0.15	2.7 ± 0.15	2.85 ± 0.13	3.2 ± 0.082

Sequence	protein stability index (doa10∆)	protein stability index (pdr5∆)	protein stability index (san1∆)	protein stability index (ubr1∆)
KHEDFVEGISEVQARKS [RPT5]	3.7 ± 0.24	–	–	3.41 ± 0.2
FSKKGNEPLSEIEIEGV [YAR002W/NUP60]	2.72 ± 0.11	3.17 ± 0.14	3.04 ± 0.08	3.15 ± 0.1
VFYQVTPEDADEEEDDE [RPL22B]	1.84 ± 0.057	2.33 ± 0.068	2.63 ± 0.057	1.99 ± 0.071
GEIQLLFQRQKLHEFYL [IRR1]	2.71 ± 0.12	2.96 ± 0.075	2.63 ± 0.061	2.9 ± 0.16
SMPLEQLIPIILRQRGP [SRB4]	2.05 ± 0.057	2.31 ± 0.058	2.32 ± 0.083	1.91 ± 0.055
FFKPLDYITEAVFKIVL [SNU114]	2.06 ± 0.047	1.95 ± 0.055	1.47 ± 0.073	1.88 ± 0.035
TYRYVSVSVLVDRLKIG [RPS25A]	2.28 ± 0.091	1.48 ± 0.08	1.72 ± 0.072	1.45 ± 0.039
SASLFKQRKNPRRIAWT [RPL24A]	2.55 ± 0.11	2.9 ± 0.097	2.96 ± 0.087	3.08 ± 0.059
ELSRIENEVENINATNT [YCS4]	3.52 ± 0.16	3.11 ± 0.11	3.23 ± 0.053	3.14 ± 0.11
MNTVPFTSAPIEVTIGI [AAR2]	1.49 ± 0.092	2.01 ± 0.12	1.47 ± 0.22	1.64 ± 0.083
GAAPYAAKLKQTENDLK [RPT1]	2.06 ± 0.14	2.35 ± 0.17	2.31 ± 0.24	2.93 ± 0.19
TLVEIFLERKCVHMVYE [SSN3]	1.35 ± 0.063	1.7 ± 0.071	1.52 ± 0.11	1.75 ± 0.048
RGVRPYKHIDASGSINR [RPS19A]	3.23 ± 0.089	3.42 ± 0.1	3.1 ± 0.062	3.23 ± 0.091
LTRQPTEGRSRDGGLRL [RET1]	2.07 ± 0.07	2.14 ± 0.077	2.06 ± 0.15	2.01 ± 0.059
TAQEINFKMLVLLATWN [IRR1]	1.84 ± 0.039	2.04 ± 0.047	2.14 ± 0.051	1.83 ± 0.031
SKALLREISNFSKGDAD [SRP72]	3.06 ± 0.26	3.41 ± 0.21	–	3.77 ± 0.2
NSIDINYKGLPKKYKEN [SMC1]	2.91 ± 0.068	3.16 ± 0.08	3.21 ± 0.07	3.36 ± 0.059
SLLLAHFFSKSCSFFAK [NUT1]	1.83 ± 0.057	1.62 ± 0.043	1.61 ± 0.074	1.68 ± 0.039
EKELQNEIKQLGSDSSD [SRB4]	2.95 ± 0.1	2.81 ± 0.1	2.27 ± 0.087	2.85 ± 0.12
LESDVNIALVSKLRNNI [SRP54]	2.31 ± 0.065	2.63 ± 0.056	2.74 ± 0.052	2.98 ± 0.067
VKEEKEDMETQASDPSK [RPC53]	3.27 ± 0.14	3.41 ± 0.2	3.2 ± 0.17	3.31 ± 0.15
DDYYKEIIGGGSKSASK [ISW2]	2.37 ± 0.12	3.09 ± 0.11	3 ± 0.09	2.69 ± 0.086
VYKIYNHVMPLKPVDKL [SIN4]	1.84 ± 0.064	1.97 ± 0.072	1.63 ± 0.11	1.62 ± 0.051
TLNPDLFLYKELVKAHL [RPC82]	2.71 ± 0.079	2.87 ± 0.074	2.95 ± 0.053	2.42 ± 0.055
SNTRTMTYKNKLTVCFD [MED2]	2.51 ± 0.073	2.53 ± 0.11	1.46 ± 0.24	1.35 ± 0.056
KKIREIYRYDEMSNKVL [BRR2]	2.92 ± 0.097	3.06 ± 0.13	2.62 ± 0.086	3.08 ± 0.045
